The record followed here is publication PMC6447619, “New type of interaction between the SARAH domain of the tumour suppressor RASSF1A and its mitotic kinase Aurora A” (Scientific Reports, 2019).

Data set [1] deals with the molecule itself. In words: SEC; analytical gel filtration on Superose 6 10/300 GL, 100 μl of dilution series injected (RBD 1.5-17.5 μM, ∆N 4.5-35 μM, SARAH 1.5-80 μM), 25 mM HEPES pH 7.4, 300 mM NaCl; MBP-tagged constructs; dimer to monomers.
Data set [2] has as its target T1, Aurora A kinase domain (residues 107–403) (human) (UniProt O14965).
T1 sequence: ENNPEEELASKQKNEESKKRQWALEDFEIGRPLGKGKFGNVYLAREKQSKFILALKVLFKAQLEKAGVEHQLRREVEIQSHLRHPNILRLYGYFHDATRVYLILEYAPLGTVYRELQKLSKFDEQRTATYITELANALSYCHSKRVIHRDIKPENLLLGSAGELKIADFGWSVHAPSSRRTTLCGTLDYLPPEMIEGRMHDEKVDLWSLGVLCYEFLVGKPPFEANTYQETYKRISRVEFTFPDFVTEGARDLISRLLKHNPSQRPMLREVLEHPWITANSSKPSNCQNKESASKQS

Data set [3] addresses T2, Aurora A kinase domain (residues 107–403) (human, UniProt O14965 107-403).
T2 construct: Aurora A kinase, human, kinase domain only, residues 107-403
T2 sequence (looked up): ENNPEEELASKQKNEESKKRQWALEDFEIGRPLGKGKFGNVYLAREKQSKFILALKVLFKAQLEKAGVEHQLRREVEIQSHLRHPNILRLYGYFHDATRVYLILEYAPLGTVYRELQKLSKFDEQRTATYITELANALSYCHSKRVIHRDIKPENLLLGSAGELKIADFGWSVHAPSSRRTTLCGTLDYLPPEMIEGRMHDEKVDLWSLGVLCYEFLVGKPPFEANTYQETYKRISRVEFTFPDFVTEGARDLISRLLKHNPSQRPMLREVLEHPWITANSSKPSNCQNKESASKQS
The data set is described as follows: SPR; Biacore X; Aurora A kinase domain immobilised on a CM5 chip, RASSF1A variants as analytes; HBS-EP (10 mM HEPES pH 7.4, 150 mM NaCl, 3 mM EDTA, 0.005% Tween-20), 25 °C; equilibria not reached because of irreversible aggregation on the surface. The conditions noted are these: both partners purified.

B1: RASSF1A ∆N (residues 121–340) (domain or fragment, UniProt Q9NS23-2 121-340, looked up)
chain: EPVEWETPDLSQAEIEQKIKEYNAQINSNLFMSLNKDGSYTGFIKVQLKLVRPVSVPSSKKPPSLQDARRGPGRGTSVRRRTSFYLPKDAVKHLHVLSRTRAREVIEALLRKFLVVDDPRKFALFERAERHGQVYLRKLLDDEQPLRLRLLAGPSDKALSFVLKENDSGEVNWDAFSMPELHNFLRILQREEEEHLRQILQKYSYCRQKIQEALHACPLG
notes: Ras-association domain family 1 isoform A (RASSF1A), 340 residues, residues 121-340 (RBD plus SARAH domain); numbers count on: isoform A; 69 kDa with the MBP tag; Monomer-dimer equilibrium by SEC; also called ΔN; ΔN fragment; not shown: MBP, N-terminal, kept
Take B1: in data set [1], the “stoichiometry N” value came out at 2.

B2: RASSF1A ∆N-∆loop (residues 121–340 lacking the loop 177–197) (domain or fragment)
chain: EPVEWETPDLSQAEIEQKIKEYNAQINSNLFMSLNKDGSYTGFIKVQLKLVRPVSVVRRRTSFYLPKDAVKHLHVLSRTRAREVIEALLRKFLVVDDPRKFALFERAERHGQVYLRKLLDDEQPLRLRLLAGPSDKALSFVLKENDSGEVNWDAFSMPELHNFLRILQREEEEHLRQILQKYSYCRQKIQEALHACPLG
In the case of B2, the Km of phosphorylation of ∆N-∆loop by Aurora A kinase domain (40 nM), 32P incorporation in data set [2] is 10 µM.

B3: SARAH domain of RASSF1A (residues 291–340) (domain or fragment, UniProt Q9NS23-2 291-340, looked up)
chain: VNWDAFSMPELHNFLRILQREEEEHLRQILQKYSYCRQKIQEALHACPLG
notes: Ras-association domain family 1 isoform A (RASSF1A), residues 291-340 (SARAH domain); numbers count on: isoform A; 51 kDa with the MBP tag; Monomer-dimer equilibrium by SEC; also called isolated SARAH domain; SARAH domain construct; not shown: MBP, N-terminal, kept
For B3, the “stoichiometry N” value in data set [1] was 2. In addition, in data set [3], the binding result is “binds”.
